Measurements from the Immune Epitope Database (IEDB).

What was measured:
Experiment in all cases: IEDB peptide-MHC binding, purified MHC/competitive/fluorescence; filed as Kd, often an IC50 or EC50 that approximates it; ≥ and ≤ were set here for values at or beyond the usual limits of such assays
[1] = target: HLA-A*68:02; conditions: source organism: Homo sapiens
[2] = target: HLA-B*08:03; conditions: source organism: Homo sapiens
[3] = target: HLA-B*08:01; conditions: source organism: Homo sapiens
[4] = target: HLA-B*15:17; conditions: source organism: Homo sapiens
[5] = target: HLA-A*26:02; conditions: source organism: Homo sapiens
[6] = target: HLA-A*26:03; conditions: source organism: Homo sapiens
[7] = target: HLA-A*11:01; conditions: source organism: Homo sapiens
[8] = target: HLA-B*15:09; conditions: source organism: Homo sapiens
[9] = target: HLA-B*45:06; conditions: source organism: Escherichia coli F11
[10] = target: HLA-B*40:13; conditions: source organism: Escherichia coli F11
[11] = target: HLA-B*83:01; conditions: source organism: Escherichia coli F11
[12] = target: HLA-A*02:01; conditions: source organism: Escherichia coli F11
[13] = target: HLA-B*15:42; conditions: source organism: Escherichia coli F11

| Sequence | Kd [1] [µM] | Kd [2] [µM] | Kd [3] [µM] | Kd [4] [µM] | Kd [5] [nM] | Kd [6] [µM] | Kd [7] [µM] | Kd [8] [µM] | Kd [9] [µM] | Kd [10] [nM] | Kd [11] [µM] | Kd [12] [nM] | Kd [13] [µM] |
| --- | --- | --- | --- | --- | --- | --- | --- | --- | --- | --- | --- | --- | --- |
| TYSPALNKM | 3.22 | ≥ 20 | ≥ 20 | ≥ 20 | 531 | ≥ 20 | ≥ 20 | ≥ 20 | – | – | – | – | – |
| GLIPQWVTL | – | – | – | – | – | – | – | – | ≥ 5 | 458 | ≥ 5 | ≤ 0.1 | ≥ 5 |
